Consider 14 molecules from US20190031754A1 (Scripps Research, published 2019).

Like-named read-outs stand apart in the source and are kept apart here.

One assay concerns the target T1, BSA (bovine, UniProt P02769).
T1 construct: also called bovine serum albumin
Kind of assay: ELISA, coated antigen 100 ng/well, anti-His HRP, absorbance 405 nm. For orientation: ELISA stands for enzyme-linked immunosorbent assay.

For a further assay, the target named is T2, hFc-hROR1 (human, UniProt Q01973 30-403, limits assumed).
T2 construct: also called ROR1 (ELISA control); not shown: human Fc (hFc) of pCEP4-hFc-hROR1 (Yang et al., 2011)
T2 sequence (Q01973 30-403 limits assumed): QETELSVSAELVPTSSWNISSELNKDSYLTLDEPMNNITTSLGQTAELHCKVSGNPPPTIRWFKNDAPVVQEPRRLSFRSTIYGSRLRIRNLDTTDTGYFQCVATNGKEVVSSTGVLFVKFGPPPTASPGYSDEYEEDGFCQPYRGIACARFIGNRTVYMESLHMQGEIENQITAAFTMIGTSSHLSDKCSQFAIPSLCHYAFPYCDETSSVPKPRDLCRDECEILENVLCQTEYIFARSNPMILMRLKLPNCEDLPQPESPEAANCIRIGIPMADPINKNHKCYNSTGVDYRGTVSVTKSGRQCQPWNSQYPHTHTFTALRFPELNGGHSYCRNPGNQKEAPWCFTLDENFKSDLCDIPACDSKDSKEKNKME
Described as above.

The target of assay [1] is T3, full-length human ROR2 on cells (human, UniProt Q01974 34-943).
T3 construct: whole, on cells; the cells are named under assay; In the Western blot it is denatured; also called hROR2; cell surface human ROR2
Kind of assay: flow cytometry, 63-12 cells expressing hROR2, Fab 1 µg/100 µL, anti-His Alexa Fluor 488. (In general: A flow cytometer gives signals particle by particle.)

Assay [2] deals with T4, anti-human Fc (Jackson ImmunoResearch, 109-006-008).
T4 construct: Coated on a control plate to capture the chimeric IgG1 antibodies through their human Fc; also called IgG
Description: ELISA, IgG titrated on coated anti-human Fc; fit printed as IC50.

The target in assay [3] is T4, anti-human Fc (Jackson ImmunoResearch, …). The assay is described as above. This is another data set of the same source.
Assay [4] deals with T5, recombinant human twin strep-tagged ROR2 extracellular domain (human, UniProt Q01974 34-403).
T5 construct: extracellular domain; Made in HEK293T, Streptactin purified; also called Human ROR2-TwinStrep; human ROR2
Description: ELISA, IgG titrated on coated twin-strep human ROR2 ECD; fit printed as IC50.

In assay [5] the target is T5, recombinant human twin strep-tagged …. Described as above. This is another data set of the same source.
The target in assay [6] is T6, recombinant cynomolgus twin strep-tagged ROR2 extracellular domain (cynomolgus monkey, UniProt A0A7N9D5U8 34-403).
T6 construct: extracellular domain; Made in HEK293T, Streptactin purified; also called cynomolgus ROR2; cynomolgus ROR2-TwinStrep
Kind of assay: ELISA, IgG titrated on coated twin-strep cynomolgus ROR2 ECD; fit printed as IC50.

For assay [7], the target named is T5, recombinant human twin strep-tagged …. Description: SPR, Biacore T200, IgG captured by anti-human Fcγ, ROR2-TwinStrep as analyte, 1:1 Langmuir. Background: In SPR one partner is held on a chip, and binding of the other changes the refractive index at the surface.
Assay [8] has as its target T6, recombinant cynomolgus twin …. The assay is described as above.

T1 sequence (P02769 25-607 limits assumed): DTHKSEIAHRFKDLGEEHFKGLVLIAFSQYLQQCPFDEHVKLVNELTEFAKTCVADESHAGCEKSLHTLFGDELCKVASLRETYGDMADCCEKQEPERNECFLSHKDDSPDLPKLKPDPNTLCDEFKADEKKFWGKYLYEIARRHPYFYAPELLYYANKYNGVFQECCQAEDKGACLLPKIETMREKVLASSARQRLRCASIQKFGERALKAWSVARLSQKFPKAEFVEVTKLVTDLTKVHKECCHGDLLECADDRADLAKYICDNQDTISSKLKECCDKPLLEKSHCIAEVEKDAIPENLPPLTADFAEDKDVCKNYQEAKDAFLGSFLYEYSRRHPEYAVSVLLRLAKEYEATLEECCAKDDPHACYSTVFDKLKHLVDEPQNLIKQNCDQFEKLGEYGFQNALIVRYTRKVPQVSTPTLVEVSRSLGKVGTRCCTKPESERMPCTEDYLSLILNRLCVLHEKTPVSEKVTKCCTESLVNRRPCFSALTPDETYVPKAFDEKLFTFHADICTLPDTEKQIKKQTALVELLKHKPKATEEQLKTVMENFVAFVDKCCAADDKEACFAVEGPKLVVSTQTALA

B1: chimeric rabbit/human Fab ERR2-308 (Fab, V domains shown)
VH: QEQLEESGGRLVTPGTPLTLTCAVSGFSLSNYAMGWVRQAPGEGLEYIGWISAGGGAYYASWVNGRFTISKTSSTVDLKMTSLTAADTATYFCARGASNGCDLWGPGTLVTVSS
VL: DPMLTQTPSSVSAVVGGTVTIKCQASQSITSWLSWYQQKPGQPPKLLIYGASHLASGVPSRFKGSGYGTEFTLTISGIQREDAATYYCLGGYSNSDIVFGGGTELEIL
As for B1, the binding result with BSA and with hFc-hROR1 was “no binding (tested: 100 ng/50 µL)” throughout.

B2: chimeric rabbit/human Fab ERR2-TOP35 (Fab, V domains shown)
VH: QSVKESEGGLFKPMDTLTLTCTVSGFSLNTYGVSWVRQAPGNGLEWIGAVGSSGATNYASWAKSRSTITRNTNENTVTLKMTSLTAADTATYFCARDGYYSSGWGPYFSIWGPGTLVTVSS
VL: SFVLTQPASVQVNLGQTVSLTCTAETLRSSYASWYQQKPGQAPVLLIYRDTSRPSGVPDRFSGSSSGNTATLTISGAQAGDEADYYCATSDGSGSRYYVFGGGTQLTVTG
On to B2, for which the binding result with BSA and with hFc-hROR1 was “no binding (tested: 100 ng/50 µL)” in each case.

B3: chimeric rabbit/human Fab XBR2-433 (Fab, V domains shown)
VH: QSVKESEGGLFKPTDTLTLTCTVSGFSLSTYGVSWVRQAPGNGLEWIGAIGSSGSANYASWAKDRSTITRNTNLNTVTLKMTSLTAADTATYFCARDGYYSSGWGPYFNIWGPGTLVTISS
VL: SFVLTQPASVQVNLGQTVSLTCTADTLSRSYASWYQQKPGQAPVLLIYRDTSRPSGVPDRFSGSSSGNTATLTISGAQAGDEADYYCATSGGSGSNPQYVFGGGTQLTVTG
notes: also called Fab 4-33
For the molecule B3, the binding result with BSA and with hFc-hROR1 was “no binding (tested: 100 ng/50 µL)” each time.

B4: chimeric rabbit/human Fab ERR2-TOP2 (Fab, V domains shown)
VH: QSLEESGGRLVTPGTPLTLTCTVSGFSLSSYAISWVRQAPGKGLEWIGTIGTRGDTAYANWAKGRFTISKTSTTVTLKMTSPTTEDTATYFCARELVAGGGSDLWGPGTLVTVSS
VL: DVVMTQTPSSVSAVVGGTVTIKCQASQSITSWLSWYQQKPGQPPKLLIYGASHLASGVPSRFKGSGYGTEFTLTISGIQREDAATYYCLGGYLSASYQTAFGGGTKVEIK
Regarding B4, the values for the binding result (with BSA; with hFc-hROR1; in assay [1]) were “no binding (tested: 100 ng/50 µL)”, “no binding (tested: 100 ng/50 µL)” and “binds”, respectively.

B5: chimeric rabbit/human Fab XBR2-TOP9 (Fab, V domains shown)
VH: QSVEESRGRLVTPGTPLTLICTVSGIDLSSYNIQWVRQAPGKGLEYIGYINTDGSAYYASWAKGRFTISKTSTTVDLKITSPTTEDTATYFCARGGYASGFNLWGPGTLVTISS
VL: DVVMTQTPSSTSAAVGGTVTIKCQASQNIGPWLSWYQQKPGQPPKQLIYAASTLASGVPSRFKGSGSGTDYTLTISGVQREDAATYYCLGWHSWSDDGWAFGAGTNVEIK
Turning to B5, the results for the binding result (with BSA; with hFc-hROR1; in assay [1]) were “no binding (tested: 100 ng/50 µL)”, “no binding (tested: 100 ng/50 µL)” and “binds”, respectively.

B6: chimeric rabbit/human Fab ERR2-302 (Fab, V domains shown)
VH: QKQLVESGGGLVKPGGSLTLTCTVSGFSLSSYAIGWVRQAPGNGLEWIGIINSYGSTYYASWAKSRSTITRNTNLNTVTLKMTSLTAADTATYFCARSPYGYVSAWGYHRLDLWGQGTLVTISS
VL: SYELTQLPSVSVSLGQTARITCGGASIGSKVVHWYQQKPGLAPGLLIYDDDERPSGVPDRFSGSNSGDTATLTISGAQAGDEAEYYCQLWDGSDVVFGGGTQLTVTG
In the case of B6, the binding result with BSA and in the assay with hFc-hROR1 was “no binding (tested: 100 ng/50 µL)” each time.

B7: chimeric rabbit/human Fab XBR2-327 (Fab, V domains shown)
VH: QEQLKESGGGLFKPTDTLTLTCTVSGFSLSSGAISWVRQAPGNGLEYIGFVNSLGNTYYANWAKSRSAITRNTNENTVTLKMTSLAAADTATYFCAKDYGNWAFDPWGPGTLVTVSS
VL: DPVLTQTPSSVSAAVGGTVAINCQASQSISSYLSWYQQKPGQPPKLLIYGASKLASGVPSRFSGSGSGTEYTLTISGVQREDAATYYCLGGYASASYRTAFGGGTKLEIK
For the molecule B7, the binding result in the assay with BSA and with hFc-hROR1 was “no binding (tested: 100 ng/50 µL)” each time.

B8: XBR2-327 (mAb007) (antibody, human IgG1, V domains shown)
VH: QEQLKESGGGLFKPTDTLTLTCTVSGFSLSSGAISWVRQAPGNGLEYIGFVNSLGNTYYANWAKSRSAITRNTNENTVTLKMTSLAAADTATYFCAKDYGNWAFDPWGPGTLVTVSS
VL: DPVLTQTPSSVSAAVGGTVAINCQASQSISSYLSWYQQKPGQPPKLLIYGASKLASGVPSRFSGSGSGTEYTLTISGVQREDAATYYCLGGYASASYRTAFGGGTKLEIK
notes: Full-length chimeric rabbit/human IgG1, human IgH-gamma1 and IgL-kappa constant regions; C-terminal tags HC: LPETG-Strep, LC: G5SLPETG-Strep
On to B8, for which the figures for the IC50 in assay [2], in [3] and in [4] were 0.0433 µg/mL, 0.0102 µg/mL and 0.00057 µg/mL, respectively.

B9: chimeric rabbit/human Fab ERR2-317 (Fab, V domains shown)
VH: QSLEESGGRLVTPGTPLTLTCTASGFSLSSYDMIWVRQAPGKGLEYIGIINAGGNTYYASWAKGRFTISRTSTTVDLKMTSPTTEDTATYFCARGSSWTGDIWGPGTLVTVSS
VL: DPVLTQTPSSTSAAVGGTVTIKCQASQSISSYLSWYQQKPGQPPKQLIYAASTLASGVPSRFKGSGSGTEYTLTISGVQREDAATYYCLGGYASASYQTAFGGGTKVEIK
For B9, the binding result in the assay with BSA and in the assay with hFc-hROR1 was “no binding (tested: 100 ng/50 µL)” in each case.

B10: chimeric rabbit/human Fab XBR2-TOP72 (Fab, V domains shown)
VH: QEQLEESGGRLVTPGTPLTLTCTVSGIDLSSNAMSWVRQAPGKGLEYVGFINGGGGVHYASWARGRFTISKTSTTVDLKITSPTTEDTATYFCARAGTTYYTSFNLWGPGTLVTISS
VL: QFVLTQSPSASAALGSSAKLTCTLSSAHKTYTIAWYQQQQGEAPRLLMMLRTDGSYTKGTGVPDRFSGSSSGADRYLIISSVQADDAAGYYCGADYSGGYVFGGGTQLTVTG
B10: the binding result with BSA is “no binding (tested: 100 ng/50 µL)”; in the assay with hFc-hROR1 it was “no binding (tested: 100 ng/50 µL)”; in assay [1], “binds”.

B11: chimeric rabbit/human Fab ERR2-316 (Fab, V domains shown)
VH: QKQLVESGGRLVTPGGSLTLTCTVSGFSLSKYGVSWVRQAPGSGLEYIGTIGGSGTSYYASWAKSRSTITRNTNLNTVTLKMTSLTAADTATYFCARYFGWNTGFDIWGPGTLVTISS
VL: DPVMTQTPSSVSEPVGGTVTIKCQASQSISNALAWYQQKPGQPPKRLIYKASTPASGVPSRFKGSRSGTEYTLTISGVQREDAATYYCLGFSVVSNDGWAFGAGTNVEIK
As to B11, the binding result with BSA and with hFc-hROR1 was “no binding (tested: 100 ng/50 µL)” each time.

B12: chimeric rabbit/human Fab XBR2-416 (Fab, V domains shown)
VH: QEQLEESGGRLVTPGTPLTLTCTVSGFSLSSYWMSWVRQAPGKGLEWIGTITPGGNTDYATWAKARFTVSKTSTTVDLKITSPTTEDTATYFCARGIGGAADLWGPGTLVTISS
VL: AQVLTQTPSSTSAAVGGTVTIKCQASQSISSSDLSWYQQKPGQPPKLLIYATSYLASGVPSRFKGSGSGTEYTLTISGVQREDAATYYCLGGYPNTSYRSAFGGGTKVEIK
notes: also called Fab 4-16
Consider B12, for which the binding result with BSA and in the assay with hFc-hROR1 was “no binding (tested: 100 ng/50 µL)” throughout.

B13: chimeric rabbit/human Fab XBR2-401 (Fab, V domains shown)
VH: QSVKESEGGLFKPTDTLTLTCTVSGFSLSSYGVTWVRQAPGSGLEWIGYINTAGNTYYASWAKSRSTITRNTNENTVTLKMTSLTAADTATYFCARDWTSLNIWGPGTLVTVSS
VL: DPMLTQTPSSTSTAVGDTVTIKCQASQSISSDLSWYQQKPGQRPKLLIYQASTLASGVPSRFKGSGYGTEYTLTISGVQREDAAIYYCLGGYADASYRTAFGGGTKLEIK
notes: also called Fab 4-1
For the molecule B13, the binding result in the assay with BSA and with hFc-hROR1 was “no binding (tested: 100 ng/50 µL)” each time.

B14: XBR2-401 (mAb003) (antibody, human IgG1, V domains shown)
VH: QSVKESEGGLFKPTDTLTLTCTVSGFSLSSYGVTWVRQAPGSGLEWIGYINTAGNTYYASWAKSRSTITRNTNENTVTLKMTSLTAADTATYFCARDWTSLNIWGPGTLVTVSS
VL: DPMLTQTPSSTSTAVGDTVTIKCQASQSISSDLSWYQQKPGQRPKLLIYQASTLASGVPSRFKGSGYGTEYTLTISGVQREDAAIYYCLGGYADASYRTAFGGGTKLEIK
notes: Full-length chimeric rabbit/human IgG1 (kappa) with C-terminal tags HC: LPETG-Strep, LC: G5SLPETG-Strep
With B14, the IC50 (as a rule, the concentration that inhibits the measured activity by half) in assay [2] turned out to be 0.0856 µg/mL; in assay [3], 0.0068 µg/mL; in assay [5], 0.0505 µg/mL; in assay [4] it was 0.0419 µg/mL; in [6] it was 0.0433 µg/mL. Also, the Kd (usually the concentration at which binding is half-saturated) in assay [7] was ≤ 10.2 nM; in [8], ≤ 1.1 nM.
